# Measurements from the nanobody polyreactivity screen of Harvey et al. (2022).
# Test: yeast display, Sf9 membrane polyspecificity reagent, FACS + sequencing; frameworks hold sequencing errors
# Outline: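 Polyreactivity labels are assigned by the sorting gate from which each nanobody was recovered. The gates were low and high (top ~1%), set on anti-HA fluorescence for expression and streptavidin fluorescence for reagent binding. Before sorting, galactose-induced (36–48 hours) yeast display cells were stained for 1 hour at 4 °C with 10% biotinylated, detergent-solubilized Sf9 membrane reagent.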
row,Sequence,polyreactivity (PSR sort gate)
1,QVQLVESGGGLVQAGGSLRLSCAASGFIFSYNAMGWYRQAPGKERELVAAISSSGGTTYYADSVKGRFTISRDKAKNTVYLQMNSLKPEDTAVYYCNKTTHSRTFRYDYWAQGTQVTVSS,low polyreactivity
2,QVQLVESGGGLVQAGGSLRLSCAASGFIFSYNAMGWYRQAPGSERELVAAITRRTASTYYADSVKGRFTISRDNAKNTVYFQMNSLKPEDTAVYYCAADSSLKRPYYAGYYYWGQGTQVTVSS,high polyreactivity
3,QVQLVESGGGLVQAGGSLRLSCAASGFIFSYYAMGLYRQAPGKERELVAAIDYSGGSTNYADSVKGRFTISRDIAKYTVYLQMNSLKPEDTAVYYCNAEYTWHRGYDYWGQGTQVTVSS,low polyreactivity
4,QVQLVESGGGLVQAGGSLRLSCAASGFIFSYYAMGWYRQAPGKEREFVAAISRRGGSTYYADSVKGRFTISRDNAKNTVYLQMISLKPDDSAVYYCARRRTSTAVREHYYRDWYGYDYWGQGTQVTVSS,high polyreactivity
5,QVQLVESGGGLVQAGGSLRLSCAASGFIFSYYAMGWYRQAPGKERELVAAITVRGGSTYYADSVKGRFTISRDNAKNTVYLQRNCLKPEDTAVYYCNTVHGLWRRYNYWGQGTQVTVSS,high polyreactivity
6,QVQLVESGGGLVQAGGSLRLSCAASGFIFSYYAMGWYRQAPGKERELVAAITWDGGSTYYADSVKGRFTISRDNAKNTVYLQMNSLKPEDTAVYYCNAYYYYRRPLEGGYGGQGTQVTVSS,low polyreactivity
7,QVQLVESGGGLVQAGGSLRLSCAASGFIFSYYAMGWYRQAPGKEWELVAAISQNVAGTYYADSVKGRFTISRDNAKNTVYLQMNSLKPEDTAVYYCNARPYSGKYYYWGQGTQVTVSS,high polyreactivity
8,QVQLVESGGGLVQAGGSLRLSCAASGFIFSYYAMGWYRQEPGKERELVAAITSNGGITYYADSVKGRFTISRDNAKNTVYLQMNSLKPEDTAVYYCNAYYTSTSYDYWGQGTQVTVSS,high polyreactivity
9,QVQLVESGGGLVQAGGSLRLSCAASGFIFTDNAMGWYRQAPGKEREFVAAITYSGGSTYYADSVKGRFTISRDNAKNTVYLQMNSLKPEDTAVYYCNKDVFPAPGGVTAYEYEYWGQGTQVTVSS,low polyreactivity
10,QVQLVESGGGLVQAGGSLRLSCAASGFIFTEYAMGWYRQAPGKERELVAAISRSDDGTHYADSVKGRFTISRDYAKNTVYLPMNSLKPEDTAVYDCAAYRDYQYDYWGQGTQVTVSS,low polyreactivity
11,QVQLVESGGGLVQAGGSLRLSCAASGFIFTGYAMGWYRQAPGTEREFVAAISYSGGSTYADSVKGRFTISRDNAKNTVYLQMNSLKPEDTAVYYCNARQGLWRYTAENDYWGQGTHVTVSS,low polyreactivity
12,QVQLVESGGGLVQAGGSLRLSCAASGFIFTIYAMGWYRQAPGKERELVAAISSGGSTTYADSVKGRFTISRDNAKNTVYLQMNSLKPEDTAVYYCNADYQYNRYSRVVGGHYVGWYGYWGQGTQVTVSS,low polyreactivity
13,QVQLVESGGGLVQAGGSLRLSCAASGFIFTIYAMGWYRQAPGKERELVAAITWNGGRTYYADSVKGRFTISRDNAKNTVYLQMNSLKAEDTAVYYCAARYGRAYDYWGQGTQVTVSS,high polyreactivity
14,QVQLVESGGGLVQAGGSLRLSCAASGFIFTKNAMGWYRQAPGKDRVLVAAITSSGGNTYYADSVKRRFTIARDNAKNTVYLQMNSLKPEDTAVYYCAASRFLRMYWGQGTQVTVSS,high polyreactivity
15,QVQLVESGGGLVQAGGSLRLSCAASGFIFTKYTMGWYRQAPGKERELVAAIRSDGVRTYYADSVKGRFTISRDNAKNTVYLQMNSLKPEDTAVYYCNRVSAVRIGAGDYWGQGTQVTVSS,high polyreactivity
16,QVQLVESGGGLVQAGGSLRLSCAASGFIFTKYTMGWYRQAPGKERELVAAITGRGTSTYADSVKGRFTISRDNAKNTVYLPMNSLIPEDTAVYYCAAVGWFAVFLFSDINGYYLGQGTQVTVSS,low polyreactivity
17,QVQLVESGGGLVQAGGSLRLSCAASGFIFTRNAMAWYRQAPGKEREMVAGISVRGGATYYADSVKGRFTLSRDNAKNSFYLQMNSLKPEDTAVYYCAARYWRGPRYDYWGQGTKVTVSS,high polyreactivity
18,QVQLVESGGGLVQAGGSLRLSCAASGFIFTRNRMGWYRHAPGKETELVAAISSGGRTYYADSVKGRFTISRDNAMNTVYLQMNSLIPEDTAVYYCNAGNRGVYRYDYWGQGTQVNVSS,high polyreactivity
19,QVQLVESGGGLVQAGGSLRLSCAASGFIFTRYAMGGYRHAPGKERELVAAISWSGGRTYYADSVKGRFTISRDNANNTVYLQMNSLKPEDTAVYYCAARWVRIRFDYWGQGTQVAVSS,high polyreactivity
20,QVQLVESGGGLVQAGGSLRLSCAASGFIFTRYAMGWYRQAPGKERELVAAISWSGGSTYYADSVKGRFTISRDNAKNTVYLQMNSLKPEDTAVYYCAADGSDSYDYWGQGTQVTVSS,low polyreactivity
21,QVQLVESGGGLVQAGGSLRLSCAASGFIFTVNAMGRYRQAPGKERELVAAITQSGGNRSYADSVKGRFTISSDKAKNTVYLQMNSLKPEDTAVYYCNASSDTSRYGVSTYYYWGQGTQVTVSS,low polyreactivity
22,QVQLVESGGGLVQAGGSLRLSCAASGFIFVDYDMVWYRQAPGKERELVAAISARGGSTNYADSVKGRFTISRDNAKNTVYLQMNSLKPEDTAVYYCAADTPVWSGYWYDYWGQGTQVTVSS,low polyreactivity

row,Sequence,polyreactivity (PSR sort gate)
1,QVQLVESGGGLVQAGGSLRLSCAASGFIFVGNDMGWYRQAPGKERELVAAISSGGTTNYADSVKGRFTISRDNAKNTVYLQMNSLIPEDTAVYYCAADYDYRQGYDSVHLDYWGQGTQVTVSS,low polyreactivity
2,QVQLVESGGGLVQAGGSLRLSCAASGFIFVGYAMGWYRQAPGKERELVAAISWDGGSTDYADSVKGRFTISRDNAKNTVYLQMNSLKPEDTAVYYCAASYQYWGFWYEYWGQGTQVTVSS,high polyreactivity
3,QVQLVESGGGLVQAGGSLRLSCAASGFIFVKYDMGWYRQAHGKERELVAAITTSGTGTFYADSVKGRFTISRDNAKNTVDLQMNSLKPEDTAVYYCNSLGHPGDDWGQGTQVTVSS,low polyreactivity
4,QVQLVESGGGLVQAGGSLRLSCAASGFIFVNYAMGWYRQAPGKERELVAAISRNGGRTYYADSVKGRFTISRDNAKNTVYCQMNSLTPEDTAVYYCTAELSGKRDYWGQGTQVTVSS,high polyreactivity
5,QVQLVESGGGLVQAGGSLRLSCAASGFIFVNYMGWYRQAPGKERELVAAISRGGSTNYADSVKGRFTISRDNAKNNVFLQMNSLKPEDTAVYYCAAETWYSGYTYDYWGQGTQVTVSS,low polyreactivity
6,QVQLVESGGGLVQAGGSLRLSCAASGFIFVPNAMGWYRQAPGKERELVAAITWSGSSTYYADSVKGRFTISRDNAKNTVYLQINSLKPEDTAVYYCAADYPVWDEFYDSYEYWGQGTQVTVSS,high polyreactivity
7,QVQLVESGGGLVQAGGSLRLSCAASGFIFVPYAMGWDRQAPGNERELVAAITWSGAATYYADSVQGRFTISRDNAKNTVYLQLNSLKPEDTAVYYCAAENWLPQTGGYYWYDSWGQGTQVTVSS,high polyreactivity
8,QVQLVESGGGLVQAGGSLRLSCAASGFIFVPYAMGWYRQAPGKERELVAAITWSGASTYYADSVKGRFTISRDNAKNTVYLQMNRLKPEDTAVYYCAAENWLPQTGGYYWYDYWGQGTQVTVSS,high polyreactivity
9,QVQLVESGGGLVQAGGSLRLSCAASGFIFVRNTMGWYRQAPGKERELVASISRRGRTTYYADSVKGRFTISRDNAKNTVSLQMNSLKPEDTAVYYCNARYRVPKQGDYWGQGTQVTVSS,high polyreactivity
10,QVQLVESGGGLVQAGGSLRLSCAASGFIFVRYAMGWSRPAPGKERELVDAISGSGGRTYYADSVKGRFTISRDNAKNTVYLQMNSLIPEDTAVYYCNVKSYTYGYLPYDYWGQGTQVTVSS,high polyreactivity
11,QVQLVESGGGLVQAGGSLRLSCAASGFIFVRYAMGWYRQAPGKERELVASITRSGGSTYYADSVKGRFTISRDNAKNTVYLQMNSLKPEDTAVYYCAASYYRSRGSTYGYWGQGTQVTVSS,high polyreactivity
12,QVQLVESGGGLVQAGGSLRLSCAASGFIFVRYTMGWYRQAPGKERELVAAISRSSDSTYYADSVKGRFSISRDNAKNTVYLQMNSLKPEVTAVYYCAAFSGFSPFRFYYWGQGTQVTVSS,high polyreactivity
13,QVQLVESGGGLVQAGGSLRLSCAASGFIFVSYALGWYRQAPGKETELVAAISSSGGTTNYADSVKGRFTISRDNAKNTVYLQMNSLKPEDTAVYYCAAYVYQTPHSLHIYDYWGQGTQVTVSS,low polyreactivity
14,QVQLVESGGGLVQAGGSLRLSCAASGFIFVSYAMGWYRQAPGKERELVAAIDRIGGITYYADSVKGRFSISRDNAKNTVYLQMNSLKPEDTAVYYCAAAARYATVRVGREYYWGQGTQVTVSS,low polyreactivity
15,QVQLVESGGGLVQAGGSLRLSCAASGFIFVTNVMGWYRQAPGKERELVAAISRRGTNTYYADSVKGRFTISRDNAKNTVYLQMNSLKPEDTAVYYCNKLVFHTGGFRYDYWGQGTQVTVSS,high polyreactivity
16,QVQLVESGGGLVQAGGSLRLSCAASGFIFVTYAMGWYRQAPGKERELVAAITNSGGTTYYADSVKGRFTISRDNAKNTVYLQMNSLKPEDTAVYYCNKPYGAETAHREFDYWGQGTQVTVSS,low polyreactivity
17,QVQLVESGGGLVQAGGSLRLSCAASGFIFVYGNVMGWYRQAPGKERDLVASITSDGGSTNYADSVKGRFTISRDNAKNTVYLQMNSLKPEDTAVYYCNADVPRGFGGEYDYWGQGTQVTVSS,low polyreactivity
18,QVQLVESGGGLVQAGGSLRLSCAASGFIFVYNAMGWYRQAPGKEREFVAGISRSGGNTYYADSVKGRFTISRDNAKNTVYLQMNSLKPEDTAVYYCAVVNRRFGFPNVALRSNYGDYWGQGTQVTVSS,low polyreactivity
19,QVQLVESGGGLVQAGGSLRLSCAASGFIFVYNDMGWYRPAPGKERELVASISNGDNTNYADSVKGRFTISRDNAKNTVYLQMNSLKQEDTAVYYCAARGTIYVLGVPARPVPDGDYWGQGTQVTVSS,low polyreactivity
20,QVQLVESGGGLVQAGGSLRLSCAASGFIFVYNVMGWYRQAPGKERELVAAITSGGSTNYADSVKGRFTISRDNAKNTVFLKMNSLKPEDTAVYYCNADIYPDWIYLLYGYWGQGTQVTVSS,low polyreactivity
21,QVQLVESGGGLVQAGGSLRLSCAASGFIFWENGMGWYRQAPGKERELVAAISSGVGRTYYADSVKGRFTISRDNAKNTVYLQMNSLKPEDTAVYYCNRARYYREFDYWGQGTQVTVSS,high polyreactivity
